The assay concerns the target T1, B3GNT2 (Homo sapiens, UniProt Q9NY97).
T1 construct: The respective ORFs of candidate genes [CD274 (NM_014143), MCL1 (NM_021960), JUNB (NM_002229), and B3GNT2 (NM_006577)] were synthesized; expressed in transfected cells; host or cells: A375 melanoma cells (lentiviral ORF overexpression)
T1 sequence (Q9NY97 1-397): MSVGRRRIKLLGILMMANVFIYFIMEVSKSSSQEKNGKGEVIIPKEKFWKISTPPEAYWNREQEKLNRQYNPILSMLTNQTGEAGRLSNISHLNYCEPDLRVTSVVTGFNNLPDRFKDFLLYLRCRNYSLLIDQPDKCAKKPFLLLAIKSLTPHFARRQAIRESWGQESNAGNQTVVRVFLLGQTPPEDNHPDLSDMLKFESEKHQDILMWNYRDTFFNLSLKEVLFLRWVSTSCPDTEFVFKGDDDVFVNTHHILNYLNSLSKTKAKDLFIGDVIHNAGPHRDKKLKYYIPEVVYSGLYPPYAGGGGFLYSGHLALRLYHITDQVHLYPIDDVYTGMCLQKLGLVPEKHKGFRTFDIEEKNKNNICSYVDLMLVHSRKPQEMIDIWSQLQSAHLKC
In words: Co-IP of FLAG-tagged B3GNT2 followed by mass spectrometry. Format: cell-based. More on the design: C-term IgG / C-term flag: unit not given here. As to conditions: mass spectrometry count, unit not given. The procedure, abridged:
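Co-purifying proteins were identified by fractionated nano-LC–MS/MS on an Orbitrap Elite, run data-dependent. Beforehand, lysates in 1% Triton X-100/HEPES buffer were incubated overnight at 4° C with anti-FLAG or […] and pulled down on Protein A/G magnetic beads for 4 h. Duplicate biological replicates.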

B1: RRBP1 (protein)
chain: MDIYDTQTLGVVVFGGFMVVSAIGIFLVSTFSMKETSYEEALANQRKEMAKTHHQKVEKKKKEKTVEKKGKTKKKEEKPNGKIPDHDPAPNVTVLLREPVRAPAVAVAPTPVQPPIIVAPVATVPAMPQEKLASSPKDKKKKEKKVAKVEPAVSSVVNSIQVLTSKAAILETAPKEVPMVVVPPVGAKGNTPATGTTQGKKAEGTQNQSKKAEGAPNQGRKAEGTPNQGKKTEGTPNQGKKAEGTPNQGKKAEGTPNQGKKAEGAQNQGKKVDTTPNQGKKVEGAPTQGRKAEGAQNQAKKVEGAQNQGKKAEGAQNQGKKGEGAQNQGKKAEGAQNQGKKAEGAQNQGKKAEGAQNQGKKAEGAQNQGKKAEGAQNQGKKAEGAQNQGKKVEGAQNQGKKAEGAQNQGKKAEGAQNQGKKAEGAQNQGKKAEGAQNQGKKAEGAQNQGKKAEGAQNQGKKAEGAQNQGKKVEGAQNQGKKAEGAQNQGKKAEGAQNQGKKAEGAQNQGQKGEGAQNQGKKTEGAQGKKAERSPNQGKKGEGAPIQGKKADSVANQGTKVEGITNQGKKAEGSPSEGKKAEGSPNQGKKADAAANQGKKTESASVQGRNTDVAQSPEAPKQEAPAKKKSGSKKKGEPGPPDADGPLYLPYKTLVSTVGSMVFNEGEAQRLIEILSEKAGIIQDTWHKATQKGDPVAILKRQLEEKEKLLATEQEDAAVAKSKLRELNKEMAAEKAKAAAGEAKVKKQLVAREQEITAVQARMQASYREHVKEVQQLQGKIRTLQEQLENGPNTQLARLQQENSILRDALNQATSQVESKQNAELAKLRQELSKVSKELVEKSEAVRQDEQQRKALEAKAAAFEKQVLQLQASHRESEEALQKRLDEVSRELCHTQSSHASLRADAEKAQEQQQQMAELHSKLQSSEAEVRSKCEELSGLHGQLQEARAENSQLTERIRSIEALLEAGQARDAQDVQASQAEADQQQTRLKELESQVSGLEKEAIELREAVEQQKVKNNDLREKNWKAMEALATAEQACKEKLLSLTQAKEESEKQLCLIEAQTMEALLALLPELSVLAQQNYTEWLQDLKEKGPTLLKHPPAPAEPSSDLASKLREAEETQSTLQAECDQYRSILAETEGMLRDLQKSVEEEEQVWRAKVGAAEEELQKSRVTVKHLEEIVEKLKGELESSDQVREHTSHLEAELEKHMAAASAECQNYAKEVAGLRQLLLESQSQLDAAKSEAQKQSDELALVRQQLSEMKSHVEDGDIAGAPASSPEAPPAEQDPVQLKTQLEWTEAILEDEQTQRQKLTAEFEEAQTSACRLQEELEKLRTAGPLESSETEEASQLKERLEKEKKLTSDLGRAATRLQELLKTTQEQLAREKDTVKKLQEQLEKAEDGSSSKEGTSV
Turning to B1, the C-term flag (Co-IP with FLAG antibody, C-terminally FLAG-tagged B3GNT2) came to 16. The “N-term FLAG” value (Co-IP with FLAG antibody, N-terminally FLAG-tagged B3GNT2) is reported as 2. Further, the “C-term IgG” value (Co-IP with IgG control antibody, C-terminally FLAG-tagged B3GNT2) turned out to be 2. The “N-term IgG” value (Co-IP with IgG control antibody, N-terminally FLAG-tagged B3GNT2) came out at 0.
